Measurements from US20200297818A1 (ZEALAND PHARMA A S, published 2020).
*1 amine or outer side, *2 acyl side, *3 side chain or, on linkers, in order; H or OH if unused. Side-chain parts run from the residue outwards. [ ]: non-standard residue; d: D form. The star is where a group is joined. C20 diacid = O=C(O)CCCCCCCCCCCCCCCCCCC(=O)*; γGlu = O=C(O)[C@H](CCC(=O)[*:2])N[*:1]; AEEA = NCCOCCOCC(=O)O; Aib = CC(C)(N)C(=O)O

T1: human GLP-2 receptor (hGLP2-R) (human, UniProt O95838 1-553)
T1 sequence (looked up): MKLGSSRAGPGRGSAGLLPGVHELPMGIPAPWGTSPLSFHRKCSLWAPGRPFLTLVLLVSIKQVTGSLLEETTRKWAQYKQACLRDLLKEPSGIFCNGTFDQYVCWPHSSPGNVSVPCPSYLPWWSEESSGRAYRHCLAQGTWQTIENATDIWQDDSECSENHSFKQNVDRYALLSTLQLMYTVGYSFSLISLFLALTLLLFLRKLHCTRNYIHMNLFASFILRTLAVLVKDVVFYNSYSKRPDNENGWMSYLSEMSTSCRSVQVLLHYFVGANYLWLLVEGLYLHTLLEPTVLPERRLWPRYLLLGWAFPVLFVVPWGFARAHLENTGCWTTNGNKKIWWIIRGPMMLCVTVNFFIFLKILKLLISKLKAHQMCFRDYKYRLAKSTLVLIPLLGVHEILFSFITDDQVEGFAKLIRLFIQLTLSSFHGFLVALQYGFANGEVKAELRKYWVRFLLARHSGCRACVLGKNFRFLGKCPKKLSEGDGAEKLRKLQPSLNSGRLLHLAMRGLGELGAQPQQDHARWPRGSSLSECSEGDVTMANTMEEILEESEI


Tests used:
[1] = target: T1, human GLP-2 receptor (hGLP2-R); experiment: cell-based or functional assay
[2] = target: human glucagon-like peptide 1 receptor (GLP-1 R) (human, UniProt P43220 24-463); experiment: cell-based or functional assay

EC50 GLP-2 (nM); cAMP response [1]	EC50 GLP-1 (nM); cAMP response [2]	Binder
0.14 nM	0.063 nM	H-H[Aib]EGSFTSELATILEGK([AEEA-AEEA-γGlu-C20 diacid])AARDFIAWLIEHKITD-OH [Compound 44]
0.15 nM	0.096 nM	H-H[Aib]EGSFTSELATILDK([AEEA-AEEA-γGlu-C20 diacid])KAARDFIAWLIEHKITD-OH (SMILES CC[C@H](C)[C@H](NC(=O)[C@H](Cc1ccccc1)NC(=O)[C@H](CC(=O)O)NC(=O)[C@H](CCCNC(=N)N)NC(=O)[C@H](C)NC(=O)[C@H](C)NC(=O)[C@H](CCCCN)NC(=O)[C@H](CCCCNC(=O)COCCOCCNC(=O)COCCOCCNC(=O)CC[C@H](NC(=O)CCCCCCCCCCCCCCCCCCC(=O)O)C(=O)O)NC(=O)[C@H](CC(=O)O)NC(=O)[C@H](CC(C)C)NC(=O)[C@@H](NC(=O)[C@@H](NC(=O)[C@H](C)NC(=O)[C@H](CC(C)C)NC(=O)[C@H](CCC(=O)O)NC(=O)[C@H](CO)NC(=O)[C@@H](NC(=O)[C@H](Cc1ccccc1)NC(=O)[C@H](CO)NC(=O)CNC(=O)[C@H](CCC(=O)O)NC(=O)C(C)(C)NC(=O)[C@@H](N)Cc1c[nH]cn1)[C@@H](C)O)[C@@H](C)O)[C@@H](C)CC)C(=O)N[C@@H](C)C(=O)N[C@@H](Cc1c[nH]c2ccccc12)C(=O)N[C@@H](CC(C)C)C(=O)N[C@H](C(=O)N[C@@H](CCC(=O)O)C(=O)N[C@@H](Cc1c[nH]cn1)C(=O)N[C@@H](CCCCN)C(=O)N[C@H](C(=O)N[C@H](C(=O)N[C@@H](CC(=O)O)C(=O)O)[C@@H](C)O)[C@@H](C)CC)[C@@H](C)CC) [Compound 43]
0.38 nM	0.26 nM	H-H[Aib]EGTFTSELATILDEQAAK([AEEA-AEEA-γGlu-C20 diacid])DFIAWLIEHKITD-OH (SMILES CC[C@H](C)[C@H](NC(=O)[C@H](Cc1ccccc1)NC(=O)[C@H](CC(=O)O)NC(=O)[C@H](CCCCNC(=O)COCCOCCNC(=O)COCCOCCNC(=O)CC[C@H](NC(=O)CCCCCCCCCCCCCCCCCCC(=O)O)C(=O)O)NC(=O)[C@H](C)NC(=O)[C@H](C)NC(=O)[C@H](CCC(N)=O)NC(=O)[C@H](CCC(=O)O)NC(=O)[C@H](CC(=O)O)NC(=O)[C@H](CC(C)C)NC(=O)[C@@H](NC(=O)[C@@H](NC(=O)[C@H](C)NC(=O)[C@H](CC(C)C)NC(=O)[C@H](CCC(=O)O)NC(=O)[C@H](CO)NC(=O)[C@@H](NC(=O)[C@H](Cc1ccccc1)NC(=O)[C@@H](NC(=O)CNC(=O)[C@H](CCC(=O)O)NC(=O)C(C)(C)NC(=O)[C@@H](N)Cc1c[nH]cn1)[C@@H](C)O)[C@@H](C)O)[C@@H](C)O)[C@@H](C)CC)C(=O)N[C@@H](C)C(=O)N[C@@H](Cc1c[nH]c2ccccc12)C(=O)N[C@@H](CC(C)C)C(=O)N[C@H](C(=O)N[C@@H](CCC(=O)O)C(=O)N[C@@H](Cc1c[nH]cn1)C(=O)N[C@@H](CCCCN)C(=O)N[C@H](C(=O)N[C@H](C(=O)N[C@@H](CC(=O)O)C(=O)O)[C@@H](C)O)[C@@H](C)CC)[C@@H](C)CC) [Compound 46]
0.36 nM	1.4 nM	H-H[Aib]EGSFTSELATILDEQAAK([AEEA-AEEA-γGlu-C20 diacid])DFIAWLIEHKITD-OH (SMILES CC[C@H](C)[C@H](NC(=O)[C@H](Cc1ccccc1)NC(=O)[C@H](CC(=O)O)NC(=O)[C@H](CCCCNC(=O)COCCOCCNC(=O)COCCOCCNC(=O)CC[C@H](NC(=O)CCCCCCCCCCCCCCCCCCC(=O)O)C(=O)O)NC(=O)[C@H](C)NC(=O)[C@H](C)NC(=O)[C@H](CCC(N)=O)NC(=O)[C@H](CCC(=O)O)NC(=O)[C@H](CC(=O)O)NC(=O)[C@H](CC(C)C)NC(=O)[C@@H](NC(=O)[C@@H](NC(=O)[C@H](C)NC(=O)[C@H](CC(C)C)NC(=O)[C@H](CCC(=O)O)NC(=O)[C@H](CO)NC(=O)[C@@H](NC(=O)[C@H](Cc1ccccc1)NC(=O)[C@H](CO)NC(=O)CNC(=O)[C@H](CCC(=O)O)NC(=O)C(C)(C)NC(=O)[C@@H](N)Cc1c[nH]cn1)[C@@H](C)O)[C@@H](C)O)[C@@H](C)CC)C(=O)N[C@@H](C)C(=O)N[C@@H](Cc1c[nH]c2ccccc12)C(=O)N[C@@H](CC(C)C)C(=O)N[C@H](C(=O)N[C@@H](CCC(=O)O)C(=O)N[C@@H](Cc1c[nH]cn1)C(=O)N[C@@H](CCCCN)C(=O)N[C@H](C(=O)N[C@H](C(=O)N[C@@H](CC(=O)O)C(=O)O)[C@@H](C)O)[C@@H](C)CC)[C@@H](C)CC) [Compound 45]
